The record followed here is article PMC6697736, “A novel thermostable D-amino acid oxidase of the thermophilic fungus Rasamsonia emersonii strain YA” (Scientific Reports, 2019).

The target of series [1] is T1, ReDAAO (Rasamsonia emersonii, UniProt A0A499UB99).
T1 construct: gene DAO1; full-length, 368 aa, codon-optimised synthetic ORF in pET15b, His-tagged, E. coli BL21(DE3) pLysS; 42 kDa subunit, 185 kDa tetramer; noncovalent FAD
The experiment in a line: DNPH assay, […] D-Val as substrate. The following applies: read-out: % inhibition at 50 mM. It counts as biochemical.

The target in series [2] is T1, ReDAAO. Description: absorption spectrum; TLC of flavin released by heat denaturation. It counts as binding. Particulars: noncovalent; co-purified from E. coli; pH 8.0.
Substrate in series [3]: C[C@@H](N)C(=O)O
Description: purified protein. The following applies: apparent, 55 °C, 50 mM KPi pH 8.0, 0.02 mM FAD, O2 co-substrate.

Substrate in series [4]: CC(C)[C@@H](N)C(=O)O
The experiment in a line: purified protein. It counts as biochemical, Rasamsonia emersonii. Particulars: apparent, 55 °C, 50 mM KPi pH 8.0, 0.02 mM FAD, O2 co-substrate.

Substrate in series [5]: CSCC[C@@H](N)C(=O)O
The experiment in a line: purified protein. The class given is biochemical, Rasamsonia emersonii. Particulars: apparent, 55 °C, 50 mM KPi pH 8.0, 0.02 mM FAD, O2 co-substrate.

Substrate in series [6]: N=C(N)NCCC[C@@H](N)C(=O)O
The experiment in a line: purified protein. The class given is biochemical, Rasamsonia emersonii. Particulars: apparent, 55 °C, 50 mM KPi pH 8.0, 0.02 mM FAD, O2 co-substrate.

Substrate in series [7]: N[C@H](CCC(=O)O)C(=O)O
Description: purified protein. Particulars: apparent, 55 °C, 50 mM KPi pH 8.0, 0.02 mM FAD, O2 co-substrate. The class given is biochemical, Rasamsonia emersonii.

As for `O=C(O)C[C@@H](O)C(=O)O` [D-malate], the inhibition (as a rule, the drop in the measured response relative to a control, in per cent) at 50000 µM in series [1] amounted to 17.2%.
For `C/C=C/C(=O)O` [crotonate], in series [1], the inhibition at 50000 µM is 22.6%.
On the same count and under the same terms, to `O=C(O)c1ccccc1` [benzoate] belongs 13.2%.
With `Cc1cc2nc3c(=O)[nH]c(=O)nc-3n(C[C@H](O)[C@H](O)[C@H](O)COP(=O)(O)OP(=O)(O)OC[C@H]3O[C@@H](n4cnc5c(N)ncnc54)[C@H](O)[C@@H]3O)c2cc1C` [FAD], the “absorption spectrum; TLC of flavin released by heat denaturation” value in series [2] is listed as “ReDAAO contains noncovalently bound FAD that functions as a cofactor”.

B1: ReDAAO (Rasamsonia emersonii) (protein)
chain: MATNNIVVLGAGVSGLTTAWLLSKDPSNKITVAAKHMPGDYDIEYCSPWAGANYLPVGAENSRVGQWERATWPHLRDIAQNHPEAGIHFQDTVVYNRTKDQGSTTGQWFSELVKPNPWYGKVLPNFRELSKDELPPGIDNANRFTSVCINTAVYLPWLVGQCRKNGVVFKRAVFKHVAEAANAHHSGQKADLVVNCTGLSSRKLGGVQDNTLLPARGQIVVVRNDPGLMCSISGTDDGDDEVTYMMTRAAGGGTILGGTYQKHNWDSLPDPNLAVRIMKRCIELCPSLVAPGQGIEGLDIIRHGVGLRPVREDGPRIEKELIDGVWVVHNYGHGGYGYQTSFGCATTAVEVVREALQQQKQRRDKARL
notes: full-length, 368 aa, codon-optimised synthetic ORF in pET15b, His-tagged, E. coli BL21(DE3) pLysS; 42 kDa subunit, 185 kDa tetramer; noncovalent FAD
B1: the Km – broadly, the concentration of substrate that gives half-maximal velocity – in series [3] came out at 2700 ± 300 µM; in series [4], 628 ± 40 µM; in series [5], 213 ± 30 µM; in series [6], 19200 ± 4300 µM; in series [7] it was 12100 ± 2900 µM. The catalytic constant (kcat) (usually the number of substrate molecules converted per active site and unit of time at saturation) in series [3] came out at 189 s⁻¹; in series [4] it was 225 ± 2.4 s⁻¹; in series [5] it was 120 ± 3.1 s⁻¹; in series [6], 45.6 ± 4.5 s⁻¹; in series [7], 90.7 ± 6.6 s⁻¹. For the same molecule, the kcat/Km (usually the turnover number divided by the Michaelis constant) turned out to be 69900 M⁻¹ s⁻¹ in series [3]; 358000 M⁻¹ s⁻¹ in series [4]; 562000 M⁻¹ s⁻¹ in series [5]; 2380 M⁻¹ s⁻¹ in series [6]; 7490 M⁻¹ s⁻¹ in series [7].
